Test results as given in article PMC2760636 (The Journal of urology, 2009).

B1: PAP_(133-152) (peptide)
peptide: NPILLWQPIPVHTVPLSEDQ
B2: PAP_(173-192) (peptide)
peptide: KSEEFQKRLHPYKDFIATLG

What was measured:
[1] = system: men with chronic prostatitis/chronic pelvic pain syndrome; details: CP/CPPS; cited from earlier work
HLA-DR DRB1*0701 (human) = experiment: radioligand binding
HLA-DR DRB1*0405 (human) = experiment: radioligand binding
HLA-DR DRB1*0101 (human) = experiment: radioligand binding
HLA-DR DRB1*0802 (human) = experiment: radioligand binding
HLA-DR DRB1*0901 (human) = experiment: radioligand binding
HLA-DR DRB1*0301 (human) = experiment: radioligand binding
HLA-DR DRB1*1302 (human) = experiment: radioligand binding
HLA-DR DRB1*0401 (human) = experiment: radioligand binding
HLA-DR DRB1*0404 (human) = experiment: radioligand binding
HLA-DR DRB1*1501 (human) = experiment: radioligand binding
HLA-DR DRB5*0101 (human) = experiment: radioligand binding
HLA-DR DRB4*0101 (human) = experiment: radioligand binding
HLA-DR DRB1*1101 (human) = experiment: radioligand binding
CD4 lymphocytes = details: CP/CPPS; cited from earlier work
[2] = system: CD4 and CD8 T cells from men with GP; details: men with granulomatous prostatitis; cited from earlier work

Molecule | improvement of symptoms versus placebo (in words) [1] | IC50 (HLA-DR DRB1*0701 (human)) | IC50 (HLA-DR DRB1*0405 (human)) | IC50 (HLA-DR DRB1*0101 (human)) | IC50 (HLA-DR DRB1*0802 (human)) | IC50 (HLA-DR DRB1*0901 (human)) | IC50 (HLA-DR DRB1*0301 (human)) | IC50 (HLA-DR DRB1*1302 (human)) | IC50 (HLA-DR DRB1*0401 (human)) | IC50 (HLA-DR DRB1*0404 (human)) | IC50 (HLA-DR DRB1*1501 (human)) | IC50 (HLA-DR DRB5*0101 (human)) | IC50 (HLA-DR DRB4*0101 (human)) | IC50 (HLA-DR DRB1*1101 (human)) | recognition by CD4 lymphocytes (in words) (CD4 lymphocytes) | recognition by CD4 and CD8 T cells in GP (in words) [2]
O=C(O)c1cn(C2CC2)c2cc(N3CCNCC3)c(F)cc2c1=O [ciprofloxacin] | no more effective than placebo at improving symptoms |  |  |  |  |  |  |  |  |  |  |  |  |  |  | 
PSA_(221-240) (peptide) |  | 428 nM | 67 nM | 108 nM | 646 nM | 786 nM | > 20000 nM | > 20000 nM | 93 nM | 3.3 nM | 25 nM |  |  |  |  | 
PSA_(171-190) (peptide) |  |  | 719 nM |  |  | > 20000 nM | 961 nM | 997 nM | 117 nM | 219 nM | 351 nM | > 20000 nM | 880 nM | > 20000 nM |  | 
PSA: prostate specific antigen, normal self prostatic protein |  |  |  |  |  |  |  |  |  |  |  |  |  |  | can be recognized by CD4 lymphocytes | CD4 and CD8 T cells from men with GP can recognize PSA
B1 |  |  | 164 nM | 25 nM |  |  | > 20000 nM | 339 nM | 39 nM | 28 nM | 1.5 nM |  | 82 nM | 964 nM |  | 
B2 |  | 132 nM | 211 nM | 25 nM |  | 93 nM | > 20000 nM | > 20000 nM | 296 nM | 374 nM | 4 nM | 24 nM |  | 28 nM |  | 
